The values below come from PMC9504514, “Identification of a Potential Inhibitor (MCULE-8777613195-0-12) of New Delhi Metallo-β-Lactamase-1 (NDM-1) Using In Silico and In Vitro Approaches” (Molecules, 2022).

Data set [1] deals with T1, New Delhi metallo-β-lactamase-1 (NDM-1) (Klebsiella pneumoniae, UniProt C7C422).
T1 construct: gene blaNDM-1
Description: biochemical.

Data set [2] has as its target T1, New Delhi metallo-β-lactamase-1 (NDM-1). In words: steady-state hydrolysis kinetics (Km) with purified NDM-1. It counts as biochemical.
Data set [3] deals with CC1(C)S[C@@H]2[C@H](NC(=O)[C@H](N)c3ccccc3)C(=O)N2[C@H]1C(=O)O. Described as above. It is filed as biochemical, Klebsiella pneumoniae. As to conditions: Zn2+ (two zinc ions).
Data set [4] deals with CO/N=C(\C(=O)N[C@@H]1C(=O)N2C(C(=O)O)=C(COC(C)=O)CS[C@H]12)c1csc(N)n1. The description is as above. It is filed as biochemical, Klebsiella pneumoniae. As to conditions: Zn2+ (two zinc ions).
The test system of data set [5] is C[C@@H](O)[C@H]1C(=O)N2C(C(=O)O)=C(SCCN=CN)C[C@H]12. The description is as above. It is filed as biochemical, Klebsiella pneumoniae. As to conditions: Zn2+ (two zinc ions).
For data set [6], the system named is C[C@@H](O)[C@H]1C(=O)N2C(C(=O)O)=C(S[C@@H]3CN[C@H](C(=O)N(C)C)C3)[C@H](C)[C@H]12. The data set is described as above. It counts as biochemical, Klebsiella pneumoniae. To be noted: Zn2+ (two zinc ions) substrate binding site (docking).

T1 sequence (C7C422 29-270 limits assumed): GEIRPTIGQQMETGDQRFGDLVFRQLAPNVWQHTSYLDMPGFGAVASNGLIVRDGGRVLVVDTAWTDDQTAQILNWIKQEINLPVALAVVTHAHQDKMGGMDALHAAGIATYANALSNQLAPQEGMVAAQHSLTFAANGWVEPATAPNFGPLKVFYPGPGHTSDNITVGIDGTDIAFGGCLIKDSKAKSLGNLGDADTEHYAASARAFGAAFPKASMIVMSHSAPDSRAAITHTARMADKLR

As usually defined, the IC50 is the midpoint of a concentration-inhibition curve. High values mean a need for much substance, low ones inhibition by little substance. Regarding `N#CC1=Cc2ccccc2[C@@H]2NN3C(C#N)=Cc4ccccc4[C@@H]3NN12` [MCULE-8777613195-0-12, [3R,14R]-1,2,12,13-tetrazapentacyclo [12.8.0.03,12.04,9.015,20]docosa-4,6,8,10,15,17,19,21-octaene-11,22-dicarbonitrile], the IC50 in data set [1] was 54.2 ± 6.3 µM.

A word on the Km: it is the substrate concentration at which the rate is half of its maximum. For `O=C(Cc1cccs1)N[C@@H]1C(=O)N2C(C(=O)O)=C(/C=C/c3ccc([N+](=O)[O-])cc3[N+](=O)[O-])CS[C@H]12` [nitrocefin], the Km in data set [2] was 27.1 ± 2.1 µM.

As a reminder, the kcat is the maximal rate divided by the concentration of active sites. For orientation: kcat/Km means the turnover number divided by the Michaelis constant. “New Delhi metallo-β-lactamase-1 (NDM-1) (Klebsiella pneumoniae)”: the Km stood at 99.4 ± 7.6 µM in data set [3], 61.6 ± 5.8 µM in data set [4], 83.9 ± 6.7 µM in data set [5] and 58.3 ± 5.2 µM in data set [6]. Moreover, the kcat in data set [3] came out at 392 ± 25.7 s⁻¹; in data set [4], 413 ± 28.1 s⁻¹; in data set [5], 700 ± 18.7 s⁻¹; in data set [6] it was 301 ± 11.9 s⁻¹. Moreover, the kcat/Km was 3.94e+06 ± 140000 M⁻¹ s⁻¹ in data set [3], 6.7e+06 ± 270000 M⁻¹ s⁻¹ in data set [4], 8.34e+06 ± 640000 M⁻¹ s⁻¹ in data set [5] and 5.17e+06 ± 330000 M⁻¹ s⁻¹ in data set [6].
